# Reference: article PMC4939079 (Nature structural & molecular biology, 2016)
# B1: Bap1-GFP (natural protein)
# chain: MNKGWLELESDPGLFTLLVEDFGVKGVQVEEIYDLQSKCQGPVYGFIFLFKWIEERRSRRKVSTLVDDTSVIDDDIVNNMFFAHQLIPNSCATHALLSVLLNCSNVDLGPTLSRMKDFTKGFSPESKGYAIGNAPELAKAHNSHARPEPRHLPEKQNGLSAVRTMEAFHFVSYVPITGRLFELDGLKVYPIDHGPWGEDEEWTDKARRVIMERIGLATAGEPYHDIRFNLMAVVPDRRIKYETRLHVLKVNRQTVLEALQQLIRVTQPELIQTHKSQESQLPEESKPASSKSPLGLEAGRTPVASECTQTDGAEEVAGSCPQTTTHSPPSKCKLVVKPPGSSLNGVPPNPAPIVQRLPAFLDNHNYAKSPMQEEEDLAAGVGRSRVPVRAPQQYSEDEDDYEDEDEDVQNTNPAIRYKRKGTGKPGSLSNSSDGQLSVLQPNTINVLTEKLQESQKDLSVPLSIKTSSGAGSPAVAVPTHSQPSPTPSNESTDTASEIGSAFNSPLRSPIRSANPTRPSSPVTSHISKVLFGEDDSLLRVDCIRYNRAVRDLGPVISTGLLHLAEDGVLSPLALTEGGKGSSPSTRSSQGSQGSSGLEEKEVVEVTESRDKPGLNRSSEPLSGEKYSPKELLALLKCVEAEIANYEACLKEEVEKRKKFKIDDQRRTHNYDEFICTFISMLAQEGMLANLVEQNISVRRRQGVSIGRLHKQRKPDRRKRSRPYKAKRQ
# Target: the molecule itself
# Assay: affinity purification with mass spectrometry
protein,measurement,value
B1,stoichiometry N,~2
